Results reported in patent US20150147764.

Experiments:
[1] = test system: FRETS-VWF73 polypeptide substrate (SEQ ID NO: 6), VWF D1596 to R1668
[2] = test system: GTI_FRET4 polypeptide substrate (SEQ ID NO: 1), synthetic 62 amino acid VWF A2 domain derived substrate
[3] = test system: GTI_FRET5 polypeptide substrate (SEQ ID NO: 7), synthetic 55 amino acid VWF A2 domain derived substrate
Sequence of GTI_FRET5 polypeptide substrate (SEQ ID NO: 7), synthetic 55 amino acid VWF A2 domain derived substrate (chain, as listed by the source): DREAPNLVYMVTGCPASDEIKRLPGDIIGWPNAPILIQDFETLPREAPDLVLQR

Sequence of GTI_FRET4 polypeptide substrate (SEQ ID NO: 1), synthetic 62 amino acid VWF A2 domain derived substrate (chain, as listed by the source): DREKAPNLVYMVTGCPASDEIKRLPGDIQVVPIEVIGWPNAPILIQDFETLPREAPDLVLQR
Sequence of FRETS-VWF73 polypeptide substrate (SEQ ID NO: 6), VWF D1596 to R1668 (chain, as listed by the source): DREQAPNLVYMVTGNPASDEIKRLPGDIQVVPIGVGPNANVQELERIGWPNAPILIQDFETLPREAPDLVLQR

**Q.** What does the source list for “ADAMTS13 (a disintegrin-like and metallopeptidase with thrombospondin type-1 motif, 13), as present in plasma samples, calibrators and controls”?
**A.** RFU difference between Calibrator A and Calibrator E at 30 minutes [1]: approximately 1500 to 2000 RFU difference; RFU difference between Calibrator A and E at 30 minutes [1]: 2500 RFU observed for FRETS-VWF73; Increase in fluorescence (15 min - 0 min reading), sample Calibrator A [2]: 676 RFU; Increase in fluorescence (15 min - 0 min reading), sample Calibrator B [2]: 1760 RFU; Increase in fluorescence (15 min - 0 min reading), sample Calibrator C [2]: 6180 RFU; Increase in fluorescence (15 min - 0 min reading), sample Calibrator D [2]: 10900 RFU; Increase in fluorescence (15 min - 0 min reading), sample Calibrator E [2]: 18700 RFU; Increase in fluorescence (15 min - 0 min reading), sample MON110707 [2]: 17900 RFU; Increase in fluorescence (15 min - 0 min reading), sample Positive Control High [2]: 9150 RFU; Increase in fluorescence (15 min - 0 min reading), sample Positive Control Low [2]: 2180 RFU; Increase in fluorescence (15 min - 0 min reading), sample UAMS041609 [2]: 3880 RFU; Increase in fluorescence (15 min - 0 min reading), sample VF [2]: 1290 RFU; Increase in fluorescence (30 min - 0 min reading), sample Calibrator A [2]: 843 RFU; Increase in fluorescence (30 min - 0 min reading), sample Calibrator B [2]: 3000 RFU; Increase in fluorescence (30 min - 0 min reading), sample Calibrator C [2]: 11700 RFU; Increase in fluorescence (30 min - 0 min reading), sample Calibrator D [2]: 20600 RFU; Increase in fluorescence (30 min - 0 min reading), sample Calibrator E [2]: 35100 RFU; Increase in fluorescence (30 min - 0 min reading), sample MON110707 [2]: 33400 RFU; Increase in fluorescence (30 min - 0 min reading), sample Positive Control High [2]: 17300 RFU; Increase in fluorescence (30 min - 0 min reading), sample Positive Control Low [2]: 3900 RFU; Increase in fluorescence (30 min - 0 min reading), sample UAMS041609 [2]: 7930 RFU; Increase in fluorescence (30 min - 0 min reading), sample VF [2]: 2440 RFU; Increase in fluorescence (45 min - 0 min reading), sample Calibrator A [2]: 921 RFU; Increase in fluorescence (45 min - 0 min reading), sample Calibrator B [2]: 4160 RFU; Increase in fluorescence (45 min - 0 min reading), sample Calibrator C [2]: 16800 RFU; Increase in fluorescence (45 min - 0 min reading), sample Calibrator D [2]: 29200 RFU; Increase in fluorescence (45 min - 0 min reading), sample Calibrator E [2]: 49400 RFU; Increase in fluorescence (45 min - 0 min reading), sample MON110707 [2]: 46800 RFU; Increase in fluorescence (45 min - 0 min reading), sample Positive Control High [2]: 24900 RFU; Increase in fluorescence (45 min - 0 min reading), sample Positive Control Low [2]: 5510 RFU; Increase in fluorescence (45 min - 0 min reading), sample UAMS041609 [2]: 11700 RFU; Increase in fluorescence (45 min - 0 min reading), sample VF [2]: 3550 RFU; Increase in fluorescence (60 min - 0 min reading), sample Calibrator A [2]: 1170 RFU; Increase in fluorescence (60 min - 0 min reading), sample Calibrator B [2]: 5360 RFU; Increase in fluorescence (60 min - 0 min reading), sample Calibrator C [2]: 21700 RFU; Increase in fluorescence (60 min - 0 min reading), sample Calibrator D [2]: 37300 RFU; Increase in fluorescence (60 min - 0 min reading), sample Calibrator E [2]: 61100 RFU; Increase in fluorescence (60 min - 0 min reading), sample MON110707 [2]: 58700 RFU; Increase in fluorescence (60 min - 0 min reading), sample Positive Control High [2]: 31900 RFU; Increase in fluorescence (60 min - 0 min reading), sample Positive Control Low [2]: 7170 RFU; Increase in fluorescence (60 min - 0 min reading), sample UAMS041609 [2]: 15900 RFU; Increase in fluorescence (60 min - 0 min reading), sample VF [2]: 4690 RFU; Increase in fluorescence (75 min - 0 min reading), sample Calibrator A [2]: 1010 RFU; Increase in fluorescence (75 min - 0 min reading), sample Calibrator B [2]: 6470 RFU; Increase in fluorescence (75 min - 0 min reading), sample Calibrator C [2]: 26700 RFU; Increase in fluorescence (75 min - 0 min reading), sample Calibrator D [2]: 44500 RFU; Increase in fluorescence (75 min - 0 min reading), sample Calibrator E [2]: 70600 RFU; Increase in fluorescence (75 min - 0 min reading), sample MON110707 [2]: 68400 RFU; Increase in fluorescence (75 min - 0 min reading), sample Positive Control High [2]: 39800 RFU; Increase in fluorescence (75 min - 0 min reading), sample Positive Control Low [2]: 8790 RFU; Increase in fluorescence (75 min - 0 min reading), sample UAMS041609 [2]: 19900 RFU; Increase in fluorescence (75 min - 0 min reading), sample VF [2]: 5780 RFU; Increase in fluorescence (90 min - 0 min reading), sample Calibrator A [2]: 959 RFU; Increase in fluorescence (90 min - 0 min reading), sample Calibrator B [2]: 7580 RFU; Increase in fluorescence (90 min - 0 min reading), sample Calibrator C [2]: 32200 RFU; Increase in fluorescence (90 min - 0 min reading), sample Calibrator D [2]: 53600 RFU; Increase in fluorescence (90 min - 0 min reading), sample Calibrator E [2]: 83000 RFU; Increase in fluorescence (90 min - 0 min reading), sample MON110707 [2]: 78400 RFU; Increase in fluorescence (90 min - 0 min reading), sample Positive Control High [2]: 47500 RFU; Increase in fluorescence (90 min - 0 min reading), sample Positive Control Low [2]: 10400 RFU; Increase in fluorescence (90 min - 0 min reading), sample UAMS041609 [2]: 24700 RFU; Increase in fluorescence (90 min - 0 min reading), sample VF [2]: 7260 RFU; RFU difference between Calibrator A (0% ADAMTS13 activity) and Calibrator E (100% ADAMTS13 activity) at 30 minutes [2]: approximately 34,000 Relative Fluorescence Units (RFU) difference; RFU difference between Calibrator A and E at 30 minutes [2]: approximately 35000 RFU; calibration curve / cleavage [3]: the resulting calibration curve that is obtained is linear (see FIG. 5) and cleavage of the substrate occurs; change in fluorescence with time (cleavage) [3]: demonstrates that cleavage of the SEQ ID NO: 7 polypeptide substrate occurs
